These results are taken from patent publication US20180037631A1 (Bristol-Myers Squibb, published 2018).

One assay addresses mouse EGFR (mouse, UniProt Q01279 25-647, limits assumed). Put plainly: SPR Biacore.
Another assay addresses rat EGFR (rat, UniProt A0ABK0LZB0 35-1214). Put plainly: SPR Biacore. On the technique in general: In SPR one partner is held on a chip, and binding of the other changes the refractive index at the surface.
In a further assay the target is monkey EGFR (monkey). Put plainly: SPR Biacore.
The target in assay [1] is T1, IGF-IR on human tumour cells (H292, MCF-7, RH41) (human, UniProt P08069 31-1367). As to the kind of experiment: cell-based or functional assay.
The target of assay [2] is T1, IGF-IR on human tumour cells (H292, …). Put plainly: cell-based or functional assay. This is another data set of the same source.
Assay [3] deals with T2, EGFR on the surface of human tumour cells (A431, H292) (human, UniProt P00533 25-1210). Put plainly: cell-based or functional assay.
Assay [4] has as its target T1, IGF-IR on human tumour cells (H292, …). As to the kind of experiment: cell-based or functional assay. The source holds these as a separate data set.
In assay [5] the target is T3, Recombinant human EGFR-Fc (aa 1-645 of the extracellular domain of human EGFR fused to human Fc) (human, UniProt P00533 25-645).
T3 construct: range 1-645; bought from R&D Systems; also called EGFR645-Fc; EGFR-Fc (HER-1); not shown: human Fc

Assay [6] deals with T4, IGF1R-Fc (extracellular domain of human IGF1R aa 1-932 fused to hinge and constant regions of human IgG1) (human, UniProt P08069 31-932).
T4 construct: range 1-932; made in house by transient transfection, purified on Protein A; also called IGF-IR-Fc; not shown: hinge and constant regions of human IgG1

Assay [7] deals with T2, EGFR on the surface of human tumour …. Put plainly: cell-based or functional assay. The source holds these as a separate data set.
For assay [8] the target is unchanged. Put plainly: cell-based or functional assay. This is another data set of the same source.
Assay [9] deals with T1, IGF-IR on human tumour cells (H292, …). As to the kind of experiment: cell-based or functional assay. This is another data set of the same source.
The target in assay [10] is T2, EGFR on the surface of human tumour ….
Assay [11] has as its target T3, Recombinant human EGFR-Fc (aa 1-645 of …). This is another data set of the same source.
Assay [12] deals with T4, IGF1R-Fc (extracellular domain of human …). This is another data set of the same source.
Assay [13] has the same target. This is another data set of the same source.
The target of assay [14] is T2, EGFR on the surface of human tumour …. This is another data set of the same source.
Assay [15] has the same target. The source holds these as a separate data set.

Values joined by “and” are separate entries in the source; they are usually repeats but may differ in a detail not shown here. Equal entries are not always repeated. Where two headings read alike, the source gives them in different places.

B1: I1-GS10-E5 pegylated, His-tagged (designed binder)
chain: MGVSDVPRDLEVVAATPTSLLISWSARLKVARYYRITYGETGGNSPVQEFTVPKNVYTATISGLKPGVDYTITVYAVTRFRDYQPISINYRTEIDKGSGSGSGSGSGSGSGSGSGSVSDVPRDLEVVAATPTSLLISWWAPVDRYQYYRITYGETGGNSPVQEFTVPRDVYTATISGLKPGVDYTITVYAVTDYKPHADGPHTYHESPISINYRTEIDKPCQHHHHHH
modifications: 40 kDa branched PEG on the Cys of the C-terminal Cys tail
notes: also called I1-GS10-E5 (with Peg)
A word on the Kd: it is the equilibrium constant for the complex coming apart. As for B1, the Kd with mouse EGFR came out at 3.4 nM; with rat EGFR it was 3.6 nM; in the assay with monkey EGFR, 5.1 nM. Also, in [1], the “inhibition of RH41 cell proliferation, IC50” value came out at 0.2 nM. Also, the “pIGFR IC50” value in assay [2] was found to be 2.2 nM.

B2: I1-GS10-E3, non-pegylated (designed binder)
chain: VSDVPRDLEVVAATPTSLLISWSARLKVARYYRITYGETGGNSPVQEFTVPKNVYTATISGLKPGVDYTITVYAVTRFRDYQPISINYRTEIDKGSGSGSGSGSGSGSGSGSGSVSDVPRDLEVVAATPTSLLISWLPGKLRYQYYRITYGETGGNSPVQEFTVPHDLRTATISGLKPGVDYTITVYAVTNMMHVEYSEYPISINYRTEIDKPSQ
What is called koff is the rate constant with which the complex falls apart. By kon is commonly meant a measure of how fast the partners come together. Take B2: in assay [3], the “IC50, EGF-stimulated EGFR phosphorylation, A431 cells, In Cell Western” value worked out at 47 nM; the “IC50, EGF-stimulated EGFR phosphorylation, H292 cells, ELISA” value worked out at 25 nM; the “IC50, EGF-stimulated ERK phosphorylation, A431 cells, In Cell Western” value (“IC50, EGF-stimulated ERK phosphorylation” below) is 42 nM. Besides, in assay [4], the “IC50, IGF1-stimulated IGFR phosphorylation, H292 cells, ELISA” value stood at 19 nM. In addition, in assay [5], the Kd amounted to 2.48 nM, the koff worked out at 0.000291 s⁻¹ and the kon was 117000 M⁻¹ s⁻¹. Besides, in assay [6], the Kd was 0.03 nM, the koff stood at 4.54e-05 s⁻¹ and the kon is 1.37e+06 M⁻¹ s⁻¹.

B3: E1-GS10-I1 pegylated, His-tagged (designed binder)
chain: MGVSDVPRDLEVVAATPTSLLISWVAGAEDYQYYRITYGETGGNSPVQEFTVPHDLVTATISGLKPGVDYTITVYAVTDMMHVEYTEHPISINYRTEIDKGSGSGSGSGSGSGSGSGSGSVSDVPRDLEVVAATPTSLLISWSARLKVARYYRITYGETGGNSPVQEFTVPKNVYTATISGLKPGVDYTITVYAVTRFRDYQPISINYRTEIDKPCQHHHHHH
modifications: 40 kDa branched PEG on the Cys of the C-terminal Cys tail
notes: also called E1-GS10-I1 (with PEG)
A word on the IC50: it is the concentration that gives 50% inhibition. As to B3, in assay [7], the “inhibition of EGF induced EGFR phosphorylation, A431, IC50” value stood at 297 nM; the “inhibition of EGF induced ERK phosphorylation, A431, IC50” value came to 295 nM; the “inhibition of EGFR activity, H292 cells, IC50” value was 123 nM. Moreover, in assay [8], the “A431 pEGFR IC50 (In-Cell Western)” value came to 297 nM, the “A431 pERK IC50 (In-Cell Western)” value was found to be 295 nM and the “H292 pEGFR IC50 (ELISA)” value is 123 nM. In addition, the “H292 pIGF-IR IC50 (ELISA)” value in [9] worked out at 4 nM. The molecule also came in with an IC50 in assay [10] of 396 nM. The Kd in [11] amounted to 57.9 nM. This molecule also came in with a Kd in assay [12] of 2.4 nM. This molecule had a dissociation constant (Kd) in [13] of 2.43 nM. In assay [14], this molecule came in with an IC50 of 238 nM.

B4: E3-GS10-I1 pegylated, His-tagged (designed binder)
chain: MGVSDVPRDLEVVAATPTSLLISWLPGKLRYQYYRITYGETGGNSPVQEFTVPHDLRTATISGLKPGVDYTITVYAVTNMMHVEYSEYPISINYRTEIDKGSGSGSGSGSGSGSGSGSGSVSDVPRDLEVVAATPTSLLISWSARLKVARYYRITYGETGGNSPVQEFTVPKNVYTATISGLKPGVDYTITVYAVTRFRDYQPISINYRTEIDKPCQHHHHHH
modifications: 40 kDa branched PEG on the Cys of the C-terminal Cys tail
notes: also called E3-GS10-I1-Cys (with his)
B4: in assay [1], the “inhibition of IGFR activity, H292 cells, IC50” value came out at 6 nM. In addition, in assay [8], the “A431 pEGFR IC50 (In-Cell Western)” value stood at 42 nM, the “A431 pERK IC50 (In-Cell Western)” value was found to be 40 nM and the “H292 pEGFR IC50 (ELISA)” value worked out at 10 nM. Besides, the “H292 pIGF-IR IC50 (ELISA)” value in assay [9] stood at 6 nM. This molecule showed an IC50 in assay [10] of 80.5 nM. Also, the Kd in assay [11] worked out at 10.4 nM. The same molecule showed a dissociation constant Kd in assay [12] of 0.74 nM. Besides, the IC50 in assay [14] is 89 nM.

B5: I1-GS10-E1 pegylated, His-tagged (designed binder)
chain: MGVSDVPRDLEVVAATPTSLLISWSARLKVARYYRITYGETGGNSPVQEFTVPKNVYTATISGLKPGVDYTITVYAVTRFRDYQPISINYRTEIDKGSGSGSGSGSGSGSGSGSGSVSDVPRDLEVVAATPTSLLISWVAGAEDYQYYRITYGETGGNSPVQEFTVPHDLVTATISGLKPGVDYTITVYAVTDMMHVEYTEHPISINYRTEIDKPCQHHHHHH
modifications: 40 kDa branched PEG on the Cys of the C-terminal Cys tail
B5: in [3], the “IC50, EGF-stimulated EGFR phosphorylation, A431 cells, In Cell Western” value amounted to 302 nM; the “IC50, EGF-stimulated EGFR phosphorylation, H292 cells, ELISA” value was determined as 127 nM; the “IC50, EGF-stimulated ERK phosphorylation” value amounted to 300 nM. In assay [4], the “IC50, IGF1-stimulated IGFR phosphorylation, H292 cells, ELISA” value is 0.9 nM.

B6: I1-GS10-E1, His-tagged, non-pegylated (designed binder)
chain: MGVSDVPRDLEVVAATPTSLLISWSARLKVARYYRITYGETGGNSPVQEFTVPKNVYTATISGLKPGVDYTITVYAVTRFRDYQPISINYRTEIDKGSGSGSGSGSGSGSGSGSGSVSDVPRDLEVVAATPTSLLISWVAGAEDYQYYRITYGETGGNSPVQEFTVPHDLVTATISGLKPGVDYTITVYAVTDMMHVEYTEHPISINYRTEIDKPSQHHHHHH
Take B6: in assay [3], the “IC50, EGF-stimulated EGFR phosphorylation, A431 cells, In Cell Western” value turned out to be 93 nM; the “IC50, EGF-stimulated EGFR phosphorylation, H292 cells, ELISA” value was found to be 42 nM; the “IC50, EGF-stimulated ERK phosphorylation” value was found to be 99 nM. Besides, in [4], the “IC50, IGF1-stimulated IGFR phosphorylation, H292 cells, ELISA” value is 1 nM. In [5], the Kd was 4.8 nM and 10.3 nM; the koff was 0.000603 s⁻¹ and 0.000425 s⁻¹. Also, in assay [6], binding was put at a Kd of 0.27 nM, the koff stood at 0.000398 s⁻¹ and the kon came out at 1.47e+06 M⁻¹ s⁻¹. This molecule also registered an IC50 in assay [15] of 7 nM.

B7: I1GS10-E3 (Pegylated) (designed binder)
I/E tandem 10Fn3 chain: MGVSDVPRDLEVVAATPTSLLISWSARLKVARYYRITYGETGGNSPVQEFTVPKNVYTATISGLKPGVDYTITVYAVTRFRDYQPISINYRTEIDKGSGSGSGSGSGSGSGSGSGSVSDVPRDLEVVAATPTSLLISWLPGKLRYQYYRITYGETGGNSPVQEFTVPHDLRTATISGLKPGVDYTITVYAVTNMMHVEYSEYPISINYRTEIDKPCQHHHHHH
modifications: Cys of the C-terminal Cys tail conjugated to 40 kDa branched PEG
Regarding B7, in assay [3], the “IC50, EGF-stimulated EGFR phosphorylation, A431 cells, In Cell Western” value came to 47 nM; the “IC50, EGF-stimulated EGFR phosphorylation, H292 cells, ELISA” value amounted to 46 nM; the “IC50, EGF-stimulated ERK phosphorylation” value turned out to be 50 nM. Also, the “IC50, IGF1-stimulated IGFR phosphorylation, H292 cells, ELISA” value in [4] stood at 2 nM.

B8: E3-GS10-I1, non-pegylated (designed binder)
chain: VSDVPRDLEVVAATPTSLLISWLPGKLRYQYYRITYGETGGNSPVQEFTVPHDLRTATISGLKPGVDYTITVYAVTNMMHVEYSEYPISINYRTEIDKGSGSGSGSGSGSGSGSGSGSVSDVPRDLEVVAATPTSLLISWSARLKVARYYRITYGETGGNSPVQEFTVPKNVYTATISGLKPGVDYTITVYAVTRFRDYQPISINYRTEIDKPSQ
As for B8, in assay [8], the “A431 pEGFR IC50 (In-Cell Western)” value is 14 nM, the “A431 pERK IC50 (In-Cell Western)” value worked out at 12 nM and the “H292 pEGFR IC50 (ELISA)” value was 7 nM. Moreover, the “H292 pIGF-IR IC50 (ELISA)” value in assay [9] was 6 nM. Also, in [5], the Kd stood at 0.66 nM, the off-rate constant (koff) was 0.000229 s⁻¹ and the kon was 349000 M⁻¹ s⁻¹. In assay [6], this molecule came in with a Kd of 0.12 nM, a dissociation rate constant (koff) of 0.000209 s⁻¹ and an on-rate constant (kon) of 1.8e+06 M⁻¹ s⁻¹. In assay [10], this molecule registered an IC50 of 25 nM. Besides, the Kd in [11] turned out to be 0.7 nM. The molecule also yielded a Kd in [12] of 0.1 nM.
